Target: the molecule itself
Assay: immunoblot after SDS-PAGE of extracts made without DTT; total seedling protein extracted in the presence of NEM to inhibit deSUMOylation; anti-ICE1; both bands absent in ice1-2; monomer (50kD) only with DTT (5 mM) and without NEM

B1: INDUCER OF CBF EXPRESSION 1 (ICE1) (natural protein, UniProt Q9LSE2 1-494, looked up)
chain: MGLDGNNGGGVWLNGGGGEREENEEGSWGRNQEDGSSQFKPMLEGDWFSSNQPHPQDLQMLQNQPDFRYFGGFPFNPNDNLLLQHSIDSSSSCSPSQAFSLDPSQQNQFLSTNNNKGCLLNVPSSANPFDNAFEFGSESGFLNQIHAPISMGFGSLTQLGNRDLSSVPDFLSARSLLAPESNNNNTMLCGGFTAPLELEGFGSPANGGFVGNRAKVLKPLEVLASSGAQPTLFQKRAAMRQSSGSKMGNSESSGMRRFSDDGDMDETGIEVSGLNYESDEINESGKAAESVQIGGGGKGKKKGMPAKNLMAERRRRKKLNDRLYMLRSVVPKISKMDRASILGDAIDYLKELLQRINDLHNELESTPPGSLPPTSSSFHPLTPTPQTLSCRVKEELCPSSLPSPKGQQARVEVRLREGRAVNIHMFCGRRPGLLLATMKALDNLGLDVQQAVISCFNGFALDVFRAEQCQEGQEILPDQIKAVLFDTAGYAGMI
notes: Two bands were seen, a non-modified (100kD) and a modified (130kD) dimer; source: endogenous, total protein extract of liquid grown Col-0 seedlings
  stoichiometry N: 2
